Test results as given in patent US20230233707A1 (University of Washington, published 2023).

Target: T1, Fc from human IgG1 (human, UniProt P01857-1 104-330 = IgG part)
T1 construct: domain: Fc; also called human IgG1 Fc; IgG1 Fc protein
Assay: SEC, design mixed with human IgG1 Fc, overlaid on the single components [panel B]
Description: Synthetic genes encoding designed protein sequences appended with a C-terminal 6× histidine tag were expressed in E. coli. Designs were purified from clarified lysates using immobilized metal affinity chromatography (IMAC), and size exclusion chromatography (SEC) was used as a final purification step. […] Designs were then combined with human IgG1 Fc, and the assemblies were re-purified via SEC. Eight of these AbC-forming designs assembled with Fc into a species that eluted as a monodisperse peak at a volume consistent with the target nanoparticle molecular weight (FIG. 2a-b; 3 D2 dihedral, 2 T32 tetrahedral, 1 O42 octahedral, and 2 I52 icosahedral AbCs). For the i52.6 design, adding 100 mM L-arginine to the assembly buffer prevented aggregation after combining with Fc; all other designs readily self-assembled in Tris-buffered saline.
Designs that produced monodisperse SEC peaks around their expected retention volume were combined with Fc from human IgG1. Fc was produced recombinantly either using standard methods for expression in HEK293T cells or in E. coli (43). Cage components were incubated at 4° C. for at minimum 30 minutes. […] Fc-binding and cage formation were confirmed via SEC; earlier shifts in retention time (compared to either component run alone) show the formation of a larger structure. NS-EM was used as previously described to confirm the structures of designs that passed these steps.

| Binder | binding result |
| --- | --- |
| i52.3 (designed binder, Homopentamer for I52 icosahedral cages; C-terminal GS linker and 6xHis tag; also called i52.3 AbC-forming design) MSDEEERNELIKRIREAAQRAREAAERTGDPRVRELARELARLAQRAFYLVLHDPSSSDVNEALKLIVEAIEAAVRALEAAERAGDPELREDAREAVRLAVEAAEEVQRNPSSSTANLLLKAIVALAEALAAAANGDKEKFKKAAESALEIAKRVVEVASKEGDPEAVLEAAKVALRVAELAAKNGDKEVFKKAAESALEVAKRLVEVASKEGDPELVLEAAKVALRVAELAAKNGDKEVFQKAAASAVEVALRLTEVASKEGDSELETEAAKVITRVRELASKQGDAAVAILAETAEVKLEIEESKKRPQSESAKNLILIMQLLINQIRLLVLQIRMLDEQRQEGSLEHHHHHH | binds |
| i52.6 (designed binder, Homopentamer for I52 icosahedral cages; C-terminal GS linker and 6xHis tag; also called i52.6 AbC-forming design) MSDEEERNELIKRIREAAQRAREAAERTGDPRVRELARELARLAQRAFYLVLHDPSSSDVNEALKLIVEAIEAAVRALEAAERTGDPKVREEARELVRRAVEAAEEVQRNPSSSEVNEKLKAIVVEIEVKVASLEAKEVTDPDKALKIAKKVIELALEAVKENPSTEALRAVLEAVRLASEVAKRVTDPDKALKIAKLVIELALEAVKEDPSTDALRAVLEAVRLASEVAKRVTDPDKALKIAKLVLELAAEAVKEDPSTDALRAAKEAERLATEVAKRVTDPKKAREIEMLVLKLQMEAILAETEEVKKEIEESKKRPQSESAKNLILIMQLLINQIRLLALQIRMLALQLQEGSLEHHHHHH | binds |
| d2.3 (designed binder, also called d2.3 AbC-forming design) MSDEEERNELIKRIREAAQRAREAAERTGDPRVRELARELARIAQIAFYLVLHDPSSSEVNEALKAVVKAIELAVRALEEAEKTGDPEVRELAREVVRLAVEVATATAAGENDTLRKVAERALRLAKEAAKRGDAKAAKQAAKIAKLAAANAGDEDVLKKVELVRLAIELVEIVVENAKRKGDDDKEAAEAALAAFRIVLAAAQLAGIASLEVLELALRLIKEVVENAQREGYDIAVAAIAAAVAFAVVAVAAAAADITSSEVLELAIRLIKEVVENAQREGYVILLAALAAAAAFVVVAAAAKRAGITSSETLKRAIEEIRKRVEEAQREGNDISEAARQAAEEFRKKAEELKGSLEHHHHHH | binds |
| d2.4 (designed binder, Homodimer for D2 dihedral cages; C-terminal GS linker and 6xHis tag; also called d2.4 AbC-forming design) MSDEEERNELIKRIREAAQRAREAAERTGDPRVRELARELARIAQIAFYLVLHDPSSSEVNEALKAVVKAIELAVRALEAAEKTGDPRVRELAREVVKAAVDVAEAAQAGLNDKLREVAEKALRLAKEALKEGDSTAAELAAEIARLAAKLAGDEDVLKKVKLVLEAIKLVKIVVENAKRKGDDSKEAAEAAVAAFLIVLAAAKLAGIASEEVLELAARLIKEVVENAQREGYDIAVAAIAAAVAFAVVAVAAAAADITSSEVLELAIRLIKEVVENAQREGYVILLAALAAAAAFVVVAAAAKRAGITSSETLKRAIEEIRKRVEEAQREGNDISEAARQAAEEFRKKAEELKGSLEHHHHHH | binds |
| d2.7 (designed binder, Homodimer for D2 dihedral cages; C-terminal GS linker and 6xHis tag; also called d2.7 AbC-forming design) MSDEEERNELIKRIREAAQRAREAAERTGDPRVRELARELAKLAQIAFYLVLHDPSAKEVNLALELIVKAIELAVRALEEAEKTGDPHARELAREIVRLAVELARAVAEAAEEAKKQGNSELAEQVARAAQVALEVIKAAITAAKQGDRKAFRAALELVLEVIKAIEEAVKQGNPKKVAEVALKAELIRIVVQNAANKGDDADEAVEAARAAFEIVLAAAQLAGIDSEEVLELAARLIKEVVENAQREGYDIAVAAIAAAVAFAVVAVAAAAADITSSEVLELAIRLIKEVVENAVREGYVILLAALAAAAAFVVVAAAAKRAGITSSETLKRAIEEIRKRVEEAQREGNDISEAARQAAEEFRKKAEELKGSLEHHHHHH | binds |
